This note sets out measurements from patent US20250289871A1 (AstraZeneca / MedImmune, published 2025).

The labels stand for the following.
B1: RQ43 (TM-YTE) (antibody, V domains shown)
VH: EVQLLETGGGLVQPGRSLRLSCAASGFPFDDYAIHWVRLAPGKGLEWVSSISWDSGSIGYADSVKGRFTISRDNAKNSLYLQMNSLRAEDTALYYCAKGAFPGYSSGWYYGLDVWGQGATVTVSS
VL: QSVVTQPPSASGSLGQSVTISCTGTSSDVGGYNYVSWYQQHPGKAPKLMIFEVSKRPSGVPDRFSGSKSGNTASLTVSGLQAEDEADYYCSSYAGNKGVFGGGTKLTVL
B2: RQ40 (TM-YTE) (antibody, V domains shown)
VH: EVQLVESGAEVKKPGSSVKVSCKASGGTFSSYAINWVRQAPGQGLEWMGGIIPIFRTPHYAQKFQGRVTITADESTGTAYMELSSLRSEDTAVYYCASPSCGGDCPQYLKSSKLDWYFDLWGRGTLVTVSS
VL: VIWMTQSPGTLSLSPGERATLSCRASQSVSSTYLAWYQQKPGQAPRLLIYGASSRATGIPDRFSGSGSGTDFTLTISRLEPEDFAVYYCQHYGSSPLTFGQGTRLEIK
B3: RQ33 (TM-YTE) (antibody, V domains shown)
VH: QVQLQESGPGLVKPSETLSLTCTVFGGSITSSNHYWVWIRQPPGKGLEWIGSMYYSGSTAYNPSLTNRVTISVDTSKNQFSLKLSSVTAADTAVYYCARQIGPKRPSQVADWFDPWGQGTLVTVSS
VL: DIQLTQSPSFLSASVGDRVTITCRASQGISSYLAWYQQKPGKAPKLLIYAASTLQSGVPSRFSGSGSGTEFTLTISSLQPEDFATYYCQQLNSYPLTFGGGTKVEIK

The experiment addresses SARS-CoV-2 spike RBD (residues 334-526), AviTag and 8×HisTag (SARS-CoV-2, UniProt P0DTC2 334-526).
Consider B1, for which the Kd (as a rule, the constant that tells how readily two partners part at equilibrium) was below 0.001 nM.
Then B2, with below 0.001 nM; and B3, with 3.65 nM.
